Where a chain is given by its changes, count along the chain named.
T1: extracellular domain of human IL28RA (human, UniProt Q8IU57 21-228)
T1 construct: Plates were 'coated with IL28RA'; also called hIL28RA ECD antigen; hIL28RA
T1 sequence: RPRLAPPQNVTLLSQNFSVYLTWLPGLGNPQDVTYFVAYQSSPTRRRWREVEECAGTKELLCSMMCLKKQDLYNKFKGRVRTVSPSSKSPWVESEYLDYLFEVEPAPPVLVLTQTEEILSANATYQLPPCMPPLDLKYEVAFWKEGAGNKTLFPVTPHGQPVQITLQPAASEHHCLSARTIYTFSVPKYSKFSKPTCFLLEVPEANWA

B1: hIL28RA VHH1 (VHH, not shown: large carriers)
VHH: QVQLQESGGGSVQAGGSLRLSCASSGYISSSYCMAWFRQAPGKEREGAAGVTRDGKTYYGDSVKGRFAISRDNAKNTLYLQMNSLKPEDTAMYYCAAGPPPCITSMPAGGDYGYRYWGQGTQVTVSS
notes: Camel VHH tested as periplasmic extract of a phage clone (PE-ELISA); also called anti-human IL28RA VHH
B2: hIL28RA VHH10 (VHH, not shown: large carriers)
VHH: QVQLQESGGGSVQAGGSLRLSCASSGYISSRSTYCMGWFRQAPGKEREVAAVVTGDSRTYYGDSVKGRFAISRDNAKNTLYLQMNSLKPEDTAMYYCAAGPPPCITTMPAGGDYGYRYWGQGTQVTVSS
notes: as for B1
B3: hIL28RA VHH12 (VHH, not shown: large carriers)
VHH: B2 VHH with V52I, K66R, T107S
notes: as for B1
B4: hIL28RA VHH11 (VHH, not shown: large carriers)
VHH: QVQLQESGGGSVQSGGSLRLSCAASGFTYSSYCMGWFRQAPGKEREGVAAIDSDGSTSYADSVKGRFTISKDNAKNTLYLQMNSLRPEDTAMYYCAADGEYNDYVCWSTGLRYRGQGTQVTVSS
notes: as for B1
B5: hIL28RA VHH5 (VHH, not shown: large carriers)
VHH: QVQLQESGGGLVQPGGSLRLSCAASGFTFSNATMSWVRQAPGKEIEWVSAISNSRGTKYYAAFVKGRFTISRDNAKNTLYLQLNNLKTEDTAMYYCTKDWKTSYSDYDLSDGQGTQVTVSS
notes: as for B1
B6: hIL28RA VHH13 (VHH, not shown: large carriers)
VHH: B5 VHH with G16S
notes: as for B1
B7: hIL28RA VHH14 (VHH, not shown: large carriers)
VHH: QVQLQESGGGSVQAGGSLRLSCASSGYISRSSYCMGWFRQAPGKEREVAAIVTGDGRTYYGDSVKGRFAISRDNAKNTLYLQMNSLKPEDTAMYYCVAGPPPCITTMPAGGDYGYRYWGRGTQVTVSS
notes: as for B1
B8: hIL28RA VHH7 (VHH, not shown: large carriers)
VHH: QVQLQESGGGLVQPGGSLRLSCAASGFTFSNYGMSWVRQAPGKGLEWVSGINSGGDDTFYTDSVKGRFTISRDNAKNTLYLQMNSLKTEDTAMYYCAMGASGMIPRGQGTQVTVSS
notes: as for B1
B9: hIL28RA VHH2 (VHH, not shown: large carriers)
VHH: B8 VHH with V112I
notes: as for B1
B10: hIL28RA VHH9 (VHH, not shown: large carriers)
VHH: B8 VHH with A75V
notes: as for B1
B11: hIL28RA VHH3 (VHH, not shown: large carriers)
VHH: QVQLQESGGGLVQPGGSLRLSCVASGFTFSDYAMSWVRQAPGMGLERVSAIGRDGSTFYPDSVKGRFTISRDNAKNTLYLQLNSLKTEDTAMYYCAKEEPGSSSRGQGTQVTVSS
notes: as for B1
B12: hIL28RA VHH6 (VHH, not shown: large carriers)
VHH: B11 VHH with V23A
notes: as for B1
B13: hIL28RA VHH4 (VHH, not shown: large carriers)
VHH: QVQLQESGGGSVQLGGSLRLSCLVSGSTDNIKYMGWFRQAPGKEREGVAAVYTSGGAVVYADSVKGRFTISQDDAKNTMYLQMNSLKPEDTAMYYCAASRAPAPPRLLLQRALVEYWGQGTQVTVSS
notes: as for B1
B14: hIL28RA VHH8 (VHH, not shown: large carriers)
VHH: QVQLQESGGGSVQAGGSLRLSCAVSRYTISRSDCMGWFRQAPGKEREGVARIGSDGTTSYADSVKERFTISKDNAKNILYLQMNSLKPEDTARYYCAATALLLGRGSACHKEVSVFSWWGQGTQVTVSS
notes: as for B1

What follows are binders tested against T1, extracellular domain of human IL28RA (assay: periplasmic extract ELISA on IL28RA-coated plates, A450 at least threefold over PBS-coated control).
Protocol: Upon completion of the biopanning of Example 3, three 96-well plates of individual phage clones were isolated in order to perform periplasmic extract ELISA (PE-ELISA) on IL28RA coated plates to identify positive VHH binders that selectively bound IL28RA . A 96-well plate was coated with IL28RA and PBS under the same conditions. Next, wells were blocked at 37° C. for 1 h. Then, 100 µl of extracted antibodies was added to each well and incubated for 1 h. Subsequently, 100 µl of anti-tag polyclonal antibody conjugated to HRP was added to each well and incubated at 37° C. for 1 h. Plates were developed with TMB substrate. The reaction was stopped by the addition of H2SO4. Absorbance at 450 nm was read on a microtiter plate reader. […] Positive clones were sequenced, and sequences analyzed to identify unique clonotypes

| Binder | binding result |
| --- | --- |
| B1 | binds |
| B2 | binds |
| B3 | binds |
| B4 | binds |
| B5 | binds |
| B6 | binds |
| B7 | binds |
| B8 | binds |
| B9 | binds |
| B10 | binds |
| B11 | binds |
| B12 | binds |
| B13 | binds |
| B14 | binds |

Reference: US20230279125A1 (published 2023)
